These results are taken from paper doi:10.1101/467431 (bioRxiv, 2018).

Read-outs that look alike come from different tables or passages of the source.

What all share (test): ITC
Experiment [1] has as its target T1, monomeric actin (LatB-actin) (UniProt P68135 1-377).
Experiment [2] addresses T2, Sca2 C-terminal fragment, construct Sca_(868-1515) (Rickettsia conorii, UniProt Q92JF7 868-1515).
T2 sequence: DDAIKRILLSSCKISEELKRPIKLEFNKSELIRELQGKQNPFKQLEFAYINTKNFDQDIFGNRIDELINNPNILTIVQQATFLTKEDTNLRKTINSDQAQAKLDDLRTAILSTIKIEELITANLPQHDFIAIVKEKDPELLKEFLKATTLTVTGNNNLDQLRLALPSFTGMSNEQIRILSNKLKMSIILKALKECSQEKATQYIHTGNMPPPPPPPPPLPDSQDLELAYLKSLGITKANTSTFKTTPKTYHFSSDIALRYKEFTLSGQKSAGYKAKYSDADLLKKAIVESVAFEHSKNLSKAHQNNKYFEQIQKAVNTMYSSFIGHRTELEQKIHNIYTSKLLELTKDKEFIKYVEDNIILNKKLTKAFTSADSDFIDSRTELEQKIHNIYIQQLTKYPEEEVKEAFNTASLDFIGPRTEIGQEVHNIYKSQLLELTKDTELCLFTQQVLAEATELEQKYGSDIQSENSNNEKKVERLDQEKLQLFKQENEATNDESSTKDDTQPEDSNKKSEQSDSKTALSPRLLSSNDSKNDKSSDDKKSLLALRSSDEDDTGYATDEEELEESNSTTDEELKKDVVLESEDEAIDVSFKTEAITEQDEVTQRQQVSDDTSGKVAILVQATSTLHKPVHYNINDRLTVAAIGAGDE

In experiment [3] the target is T1, monomeric actin (LatB-actin). The source holds these as a separate data set.

As usually defined, the stoichiometry N is a count of units in the complex or per binding partner. Broadly, the Kd is the equilibrium constant for the complex coming apart. Read a high Kd as weaker binding.

B1: Sca2 N-terminal fragment, construct Sca_(34-670) (domain or fragment)
chain: ASFKDLVSKTPAWEKHNSTQQQNIWKDLTPNEKIKKWQEAALVPSFTQAQNDLGIKYKETDLSSFLDNTRHKARQARAEILLYIERVKQQDFDTKKQAYINQGVVPTDIEAATNLGISYDPSKIDNNVEHDQKVRRAEKDKKAVIELYVSSINRGIKYKHYVDNDIIPEIQEVRTALNMNKDDAQSFVASIRTEIMENAKGQYIADSHIPTEKELKKKFGISRDDNRDGYIKSIRLKVMDKEKPQYIADSHIPTEKELEQKFGADKGEATNYIASIATQMMLDKKSYYIDNNIIPNADELMNEFKIGPVKATSYINQIRAGIEANQFLNNNDTTKPSTGRSQKKSGSKNDHWYMSNQSINNTGTSARIVTGREKKQRYFFDPISTFKTYFNTKASKGNLTQSQHNINRIIQQEENIEEFKNLIKTDPIAALTLQVDSSYKQEAVTTILSDFNDDTIQRVLFSNDKGKLDFNTNIDVKNRPILQELLENSSSEEKTKFAERIQDYATRNISNSQFEEKARLDLIKLAASKDKSSVENFLTLQLELKNRMQPYVVNSVYILTPEIVKEINIELKNKGLIRDSLTKDYMIKLAKEVNNHTLNSVIKVILSDSKILSNETNKILGLAVSNNANNLEQTQSG
As to B1, the “stoichiometry N” value in experiment [1] is 2 actin subunits per Sca_(34-670). For the same molecule, in experiment [2], binding was put at a Kd of 7 µM.

B2: Sca2 construct Sca_(869-1060) (domain or fragment)
chain: DAIKRILLSSCKISEELKRPIKLEFNKSELIRELQGKQNPFKQLEFAYINTKNFDQDIFGNRIDELINNPNILTIVQQATFLTKEDTNLRKTINSDQAQAKLDDLRTAILSTIKIEELITANLPQHDFIAIVKEKDPELLKEFLKATTLTVTGNNNLDQLRLALPSFTGMSNEQIRILSNKLKMSIILKALK
Turning to B2, in experiment [3], the Kd was 10.8 µM and the “stoichiometry N” value was 1 LatB-actin monomer per Sca_(869-1060).

B3: MBP fusion of the WH2 domain of WAVE1 (WAVE1 WH2a) (domain or fragment)
chain: AAANNNNNNNNNNLGARSVLLEAIRKGIQLRKV
Regarding B3, in experiment [1], binding was characterised by a dissociation constant (Kd) of 0.38 µM and the “stoichiometry N” value came out at 1.07.
